The record followed here is the Human Domainome abundance scans (Beltran et al. 2025).

± gives the uncertainty stated by the source.

First the molecules themselves.
B1: Transcription factor SOX-11, residues 50 to 117; numbered along this chain, P35716 (parent)
chain: KRPMNAFMVWSKIERRKIMEQSPDMHNAEISKRLGKRWKMLKDSEKIPFIREAERLRLKHMADYPDYK
B2: Cell division cycle and apoptosis regulator protein 1, residues 625 to 674; numbered along this chain, Q8IX12 (parent)
chain: ISTPTHWSKLDPKTMKVNDLRKELESRALSSKGLKSQLIARLTKQLKVEE

In the first data set the parent is B1. The experiment in a line: abundance fitness (aPCA) (normalised: wild type 0, dead -1); higher = more abundant; growth selection in yeast, the domain comes from the species named. The following applies: Homo sapiens.
Take K68T: the abundance fitness was -0.139 ± 0.37.
Regarding K68Y, the abundance fitness is 0.314 ± 0.24.
The same measure, in the same setting: the value for K68C was 0.354 ± 0.28; that for K68S was -0.093 ± 0.33.
Still for that read-out and setting: the value for K68N was 0.163 ± 0.33; that for K68L was -0.642 ± 0.4.
With Y67A, the abundance fitness stood at 0.149 ± 0.14.
Same read-out and setting: next, Y67H: 0.089 ± 0.056; Y67C: -0.048 ± 0.1; Y67T: -0.044 ± 0.12.
Y67S: the abundance fitness came out at 0.175 ± 0.073.
For Y67M, the abundance fitness stood at 0.222 ± 0.27.
On the same count and under the same terms, the value for Y67D was 0.283 ± 0.056; that for Y67L was 0.098 ± 0.083.
Same read-out and setting: next, Y67P: 0.151 ± 0.11; Y67I: -0.027 ± 0.097.
With Y67W, the abundance fitness worked out at 0.17 ± 0.22.
Same read-out and setting: next, Y67N: 0.203 ± 0.053; Y67F: -0.097 ± 0.093.
For Y67K, the abundance fitness is -0.007 ± 0.24.
Same read-out and setting: the value for Y67R was -0.163 ± 0.1.
For Y67V, the abundance fitness was -0.214 ± 0.11.

Variants of B2 are the subject of a further data set. The data set is described as above. The following applies: Homo sapiens.
Regarding K35G, the abundance fitness is -0.356 ± 0.031.
On the same count and under the same terms, the value for K35A was -0.341 ± 0.051.
On the same count and under the same terms, next, T5P: -0.384 ± 0.062; T5K: -0.111 ± 0.033; T5E: -0.082 ± 0.057.
Consider T5G, for which the abundance fitness was -0.225 ± 0.033.
As for T5D, the abundance fitness is -0.689 ± 0.094.
Regarding T5I, the abundance fitness is -0.332 ± 0.069.
As for T5S, the abundance fitness amounted to 0.042 ± 0.034.
For S8R, the abundance fitness was -0.189 ± 0.057.
On the same count and under the same terms, next, T14A: -0.019 ± 0.033; T14Q: -0.022 ± 0.063; T14Y: -0.05 ± 0.061.
Same read-out and setting: next, K22E: -0.242 ± 0.059; K22Q: -0.136 ± 0.057.
On the same count and under the same terms, next, K22C: -0.134 ± 0.05; V17Y: -0.054 ± 0.068; V17I: 0.013 ± 0.046.
Regarding V17K, the abundance fitness came out at 0.022 ± 0.065.
Regarding V17W, the abundance fitness is -0.092 ± 0.051.
On the same count and under the same terms, next, Q45V: -0.211 ± 0.046; Q45H: -0.284 ± 0.073.
On to Q45P, for which the abundance fitness was -0.872 ± 0.06.
Turning to Q45W, the abundance fitness was -0.244 ± 0.04.
Still for that read-out and setting: the value for S2N was 0.23 ± 0.041; that for S2D was 0.064 ± 0.038; that for S2I was 0.18 ± 0.071.
On the same count and under the same terms, next, S2K: 0.096 ± 0.037.
Take D11A: the abundance fitness was 0.043 ± 0.037.
With D11V, the abundance fitness is -0.038 ± 0.042.
The same measure, in the same setting: next, D11M: 0.028 ± 0.03; D19N: 0.063 ± 0.032.
The same measure, in the same setting: the value for D19Y was -0.023 ± 0.032; that for D19V was -0.167 ± 0.031; that for D19C was -0.02 ± 0.037.
Same read-out and setting: the value for L38C was -0.477 ± 0.066; that for L38G was -0.603 ± 0.034.
Regarding L38P, the abundance fitness was -0.634 ± 0.046.
Same read-out and setting: next, T3D: -0.136 ± 0.046; T3Q: -0.197 ± 0.057; T3A: -0.203 ± 0.037.
On to S31K, for which the abundance fitness was -0.132 ± 0.057.
The same measure, in the same setting: the value for S31Q was 0.079 ± 0.032; that for S31L was -0.084 ± 0.032.
Still for that read-out and setting: next, K32E: -0.104 ± 0.032; L20G: -0.89 ± 0.044.
The same measure, in the same setting: next, L20M: -0.115 ± 0.032.
With L20H, the abundance fitness is -0.752 ± 0.16.
On to E49P, for which the abundance fitness is -0.86 ± 0.068.
Regarding N18I, the abundance fitness was determined as 0.077 ± 0.027.
As for H6E, the abundance fitness was determined as 0.062 ± 0.048.
As to S36M, the abundance fitness is -0.169 ± 0.05.
Regarding S36D, the abundance fitness was -0.085 ± 0.065.
On the same count and under the same terms, the value for A28G was 0.145 ± 0.033.
Consider A28E, for which the abundance fitness amounted to 0.038 ± 0.055.
Same read-out and setting: the value for K13E was -0.195 ± 0.034; that for K13D was -0.16 ± 0.054; that for K13G was -0.255 ± 0.036.
The same measure, in the same setting: the value for K13S was -0.147 ± 0.03.
Same read-out and setting: the value for P4I was 0.029 ± 0.075; that for P4V was -0.033 ± 0.033.
Consider P4T, for which the abundance fitness was -0.035 ± 0.049.
In the case of W7Y, the abundance fitness is -0.051 ± 0.042.
Consider W7F, for which the abundance fitness was -0.022 ± 0.063.
For W7I, the abundance fitness is -0.258 ± 0.051.
On the same count and under the same terms, the value for W7Q was -0.279 ± 0.07; that for A40D was -0.05 ± 0.04.
Regarding E50N, the abundance fitness was -0.332 ± 0.095.
Same read-out and setting: the value for K47V was -0.168 ± 0.037.
The same measure, in the same setting: next, K47C: -0.265 ± 0.058; K47L: -0.151 ± 0.036.
For K47T, the abundance fitness was -0.131 ± 0.062.
Take K47A: the abundance fitness is -0.146 ± 0.045.
Take K44H: the abundance fitness was -0.246 ± 0.07.
As to K44S, the abundance fitness was -0.19 ± 0.04.
Still for that read-out and setting: next, M15E: -0.949 ± 0.11.
For L46M, the abundance fitness was -0.023 ± 0.055.
The same measure, in the same setting: next, L46H: -0.827 ± 0.17; L46W: -0.805 ± 0.035.
The same measure, in the same setting: next, S30H: -0.152 ± 0.064; S30L: -0.184 ± 0.029; S30D: 0.016 ± 0.059.
On the same count and under the same terms, the value for S30V was -0.047 ± 0.034; that for S30Y was -0.141 ± 0.048; that for I39M was -0.1 ± 0.039.
Regarding I39A, the abundance fitness was -0.145 ± 0.042.
Consider I39S, for which the abundance fitness was -0.205 ± 0.048.
Q37P: the abundance fitness was -0.231 ± 0.054.
On the same count and under the same terms, next, Q37E: 0.058 ± 0.051.
Regarding K9M, the abundance fitness was -0.077 ± 0.044.
Turning to K9Y, the abundance fitness was -0.158 ± 0.049.
Still for that read-out and setting: the value for K9V was -0.129 ± 0.031.
On the same count and under the same terms, next, K9S: -0.166 ± 0.039.
For the variant K9C, the abundance fitness is -0.243 ± 0.064.
In the case of S26P, the abundance fitness was -0.61 ± 0.056.
On the same count and under the same terms, the value for S26T was 0.106 ± 0.047; that for S26H was 0.053 ± 0.074; that for S26W was 0.047 ± 0.029.
Consider S26M, for which the abundance fitness amounted to 0.073 ± 0.051.
On to L42Y, for which the abundance fitness was -0.845 ± 0.081.
Still for that read-out and setting: next, L42M: -0.206 ± 0.057; L42A: -0.662 ± 0.072; L42E: -0.547 ± 0.053.
Still for that read-out and setting: next, T43S: -0.048 ± 0.047.
In the case of T43L, the abundance fitness was -0.043 ± 0.031.
Same read-out and setting: next, T43K: 0.148 ± 0.055; E23N: -0.563 ± 0.16; E23G: -0.904 ± 0.061.
Same read-out and setting: next, E23W: -0.661 ± 0.054.
On the same count and under the same terms, the value for L34K was 0.079 ± 0.038.
For the variant L34M, the abundance fitness is -0.072 ± 0.051.
Regarding L34W, the abundance fitness is -0.151 ± 0.034.
Consider L34R, for which the abundance fitness was determined as 0.048 ± 0.034.
Regarding L34Y, the abundance fitness is -0.033 ± 0.063.
Same read-out and setting: the value for L34S was -0.016 ± 0.037; that for R21I was -0.006 ± 0.07.
Take R21L: the abundance fitness is -0.215 ± 0.039.
The same measure, in the same setting: next, R21G: -0.603 ± 0.04; R21E: -0.541 ± 0.036; L24N: -0.991 ± 0.13.
Same read-out and setting: the value for L24T was -0.77 ± 0.036; that for L24K was -0.879 ± 0.056; that for L24R was -0.87 ± 0.052.
On the same count and under the same terms, the value for R41T was -0.237 ± 0.051; that for R41A was -0.377 ± 0.059.
As for R41F, the abundance fitness was -0.814 ± 0.07.
The same measure, in the same setting: next, V48Y: -0.207 ± 0.082; V48N: 0.031 ± 0.046; V48S: -0.059 ± 0.033.
Regarding V48T, the abundance fitness was -0.073 ± 0.055.
On the same count and under the same terms, next, V48I: 0.054 ± 0.059.
Consider V48H, for which the abundance fitness was -0.106 ± 0.07.
For V48D, the abundance fitness was -0.114 ± 0.067.
In the case of E25I, the abundance fitness is -0.274 ± 0.066.
For E25Q, the abundance fitness was -0.097 ± 0.035.
On the same count and under the same terms, next, E25W: -0.304 ± 0.049.
On the same count and under the same terms, next, P12E: -0.754 ± 0.089.
The same measure, in the same setting: next, G33M: -1.03 ± 0.13; G33A: -0.891 ± 0.059; G33Y: -1.03 ± 0.17.
On to G33P, for which the abundance fitness was -1.02 ± 0.077.
Still for that read-out and setting: the value for K16M was -0.24 ± 0.052; that for R27G was -0.743 ± 0.045; that for R27N was -0.871 ± 0.1.
For the variant R27C, the abundance fitness was -0.776 ± 0.083.
